# Measurements reported in paper PMC8219829.
# Molecular target: protective antigen PA63 heptameric pore (PA_(pore)) (Bacillus anthracis)
# Assay: cryo-EM structure
substance,measurement,value
protective antigen PA63 heptameric pore (PA_(pore)) (natural protein),stoichiometry N,7
